IntAct's records for PubMed 23286197

B1: MIF4G domain-containing protein (Homo sapiens), A9UHW6 (parent)
chain: MGEPSREEYKIQSFDAETQQLLKTALKDPGAVDLEKVANVIVDHSLQDCVFSKEAGRMCYAIIQAESKQAGQSVFRRGLLNRLQQEYQAREQLRARSLQGWVCYVTFICNIFDYLRVNNMPMMALVNPVYDCLFRLAQPDSLSKEEEVDCLVLQLHRVGEQLEKMNGQRMDELFVLIRDGFLLPTGLSSLAQLLLLEIIEFRAAGWKTTPAAHKYYYSEVSD

Variants of: B1
Settings: with slbp_human SLBP

effect of a mutation on the interaction | Variant
with no effect | R157A
with no effect | R82A
with no effect | Q64A
increasing interaction | E200A
with no effect | R76A
with no effect | F75A
disrupting interaction | R202A

The next lines start with the variant.

Variant | effect of a mutation on the interaction
K10A | with no effect
Y60A | with no effect
R57A | with no effect
H44A | with no effect
E7A | with no effect
